Data reported in patent publication US8460669B2, “Compositions and methods for identifying response targets and treating flavivirus infection responses” (Academia Sinica, priority 2005, dated 2013).
“Also recorded” adds a separate entry of the source.

B1: Fc.DC-SIGN: DC-SIGN (CLEC4L) extracellular domain fused to human IgG1 Fc (protein)
chain: QVSKVPSSISQEQSRQDAIYQNLTQLKAAVGELSEKSKLQEIYQELTQLKAAVGELPEKSKLQEIYQELTRLKAAVGELPEKSKLQEIYQELTWLKAAVGELPEKSKMQEIYQELTRLKAAVGELPEKSKQQEIYQELTRLKAAVGELPEKSKQQEIYQELTRLKAAVGELPEKSKQQEIYQELTQLKAAVERLCHPCPWEWTFFQGNCYFMSNSQRNWHDSITACKEVGAQLVVIKSAEEQNFLQLQSSRSNRFTWMGLSDLNQEGTWQWVDGSPLLPSFKQYWNRGEPNNVGEEDCAEFSGNGWNDDKCNLAKFWICKKSAASCSRDEEQFLSPAPATPNPPPA
modifications: left off: a dimerising Fc or GST

Legend:
[1] = Enzyme linked immunoassay of receptor.Fc fusions on immobilized GLPS-F3; type: binding, Ganoderma lucidum; details: GLPS-F3 100 ng/well; receptor.Fc 1 μg/ml
Protocol: The interactions of polysaccharides with receptor.Fc fusion proteins was further investigated by performing an enzyme-linked immunoassay, which was based on immobilizing GLPS-F3 through both hydrophilic and hydrophobic forces onto microtiter plates (polysytrene). In this format, the number of different receptor.Fc fusions for profiling was increased in comparison to Example 7. To optimize the quantity of GLPS-F3 for immobilization, various amounts (3-1000 ng/well, diluted in 100 mM Tris buffer, pH9.5) of biotinylated-GLPS-F3 (Biotin-GLPS-F3) were coated onto MaxiSorp StarWell microtiter plates (50 μL/well; Nunc). The plates were incubated overnight at 4° C., and then the wells were washed twice with TBST, followed by blocking with 200 μL blocking buffer (2% BSA/TBST) for 1 hour at room temperature. Peroxidase-conjugated avidin (1:5000 dilution, Vector Laboratories) and TMB (tetramethylbenzidine) substrate was then used for detection of immobilized biotinylated GLPS-F3.
The interaction between GLPS-F3 and receptor.Fc was then tested. […] Wells were incubated with 100 μL TMB substrate for 15 min after TBST washing and read at 450 nm in a Fusion plate reader (Perkin Elmer). […]

[2] = tested on: Dengue virus; assay: ELISA of receptor.Fc interaction with Dengue virus; type: binding; details: for interaction of receptor.Fc with Dengue virus (ELISA): receptor.Fc 1 μg, DV 5×10^6
Protocol: One μg of each receptor.Fc fusion protein was coated onto microtiter plates overnight at 4° C. DV (5×10^6 particles) of strain 16681 (a DEN2 strain) in binding buffer (1% BSA, 2 mM CaCl2, 2 mM MgCl2, 50 mM Tris-HCl pH 7.5, 150 mM NaCl) was then added to the plates and the plates were incubated for 2 hours. After washing non-bound virus, a biotinylated anti-DEN2 envelope protein antibody (Wu et al., J Virol, 2002. 76(8): p. 3596-604) was applied to bind to the virus for 1 hour. Diluted horseradish peroxidase-conjugated streptavidin was then added to the plates, followed by a 1 hour incubation. TMB substrate was then added and the plates were read using an ELISA reader at OD450 nm.
The microtiter plate assay was repeated in the presence of EDTA (10 mM) to chelate Ca^++ cations.
The microtiter plate assay was also repeated for DVLR1/CLEC5A.Fc fusion protein with DV particles (5×10^6) that had been 1) preincubated with 500 U of the glycosidase PNGaseF (New England Biolabs, Inc.) overnight at 37° C.; or 2) treated with dithiothreitol (DTTI) (0.1M); or 3) incubated at 95° C. for 5 minutes; or 4) UV irradiated for 5 minutes. The results are shown in FIG. 8D (asterisks indicate where the binding affinity of DVLR1/CLEC5A.Fc fusion protein is altered by modification of the virus relative to non-treated virus; ** p<0.01, *** p<0.001, Student's t test). […]

[3] = tested on: Dengue virus; assay: Immunoprecipitation of Dengue virus with receptor.Fc; type: binding; details: receptor.Fc 5 μg; DV 5×10^6; listed as DC-SIGN.Fc
Protocol: The results are depicted in FIG. 8A (** indicates p<0.01, *** indicates p<0.001 (Student's t test)). […] Specifically, 5×10^6 Dengue virus particles were incubated with 5 μg of each protein, and then Protein A beads were added. The resulting immunocomplexes were washed, separated by SDS-PAGE, and transferred onto nitrocellulose membrane. The membrane was then probed with biotinylated anti-DEN2 envelope protein antibody and developed with horseradish peroxidase-conjugated streptavidin.
In FIG. 16b, complexes of DV (5×10^6 PFU) with receptor.Fc (5 μg) were immunoprecipitated and detected on westerns with mAb to DV envelope (E) protein. […] FIGS. 16d and 16e show sugar competition assays wherein both DC-SIGN (CLEC4L) and DVLR1/CLEC5A increase DV binding to human 293T cells (FIG. 16d), while addition of sugars inhibits biotinylated DV binding to DC-SIGN- (left panel) or DLVR1/CLEC5A- (right panel) transfected 293T cells in a dose-dependent manner as determined by flow cytometry (FIG. 16e). According to FIG. 16e, MFI represents mean fluorescence intensity. Units (U) for monosaccharide (mannose and fucose) and polysaccharide (mannan) are mM and mg/ml, respectively. […] Data are expressed as the mean±s.d. of three independent experiments. Two-tailed, Student's t-tests were performed. […]

Molecule	binding ability to GLPS-F3 [1]	interaction of receptor.Fc with Dengue virus (ELISA) [2]	binding to DV pretreated with heat or dithiothreitol ([2]; 95° C. 5 min or DTT 0.1 M)	Ca^++ dependence of binding to Dengue virus ([2]; EDTA 10 mM)	interaction of receptor.Fc with Dengue virus (ELISA) ([2]; listed as DC-SIGN.Fc)	immunoprecipitation of Dengue virus (E protein detected) [3]
Fc.DC-SIGNR: DC-SIGNR (CLEC4M) receptor.Fc fusion protein	minimal binding ability	able to capture DV2	–	–	–	–
B1	–	binds	not	Ca^++ dependent; also recorded: Ca^++-dependent	able to capture DV2	able to immunoprecipitate DV; also recorded: detected
